Laboratory results from patent US20210283212A1 (RA PHARMACEUTICALS, published 2021).
Starred links: 1 amine or outer side, 2 acyl side, 3 side chain; linkers in the order of their positions; H or OH if unused. Positions of bridges follow the written chain, without caps; N, C: chain ends. Non-standard residues stand in square brackets, D forms with d. Primed or numbered codes have the meaning given here. No end group written: not given here. *: point of attachment. mXylyl(3) = bridging moiety between the two residues given in brackets; m‑xylyl = bridging moiety between the two residues given in brackets; Tyr(OMe) = O-methyl tyrosine, COc1ccc(C[C@H](N[*:1])C(=O)[*:2])cc1; Phe(3-CH2NH2) = O=C([C@H](Cc1cccc(CN[*:3])c1)N[*:1])[*:2]; mXylyl″ = bridging moiety between the two marked residues; Trp(7-aza) = N[C@@H](Cc1c[nH]c2ncccc12)C(=O)O; mXylyl(4) = bridging moiety between residues; NMePhe(4-F) = CN[C@@H](Cc1ccc(F)cc1)C(=O)O; pXylyl = bridging moiety between residues; PEG2000 = polyethylene glycol, 2000 Da; Phe(4-F) = N[C@@H](Cc1ccc(F)cc1)C(=O)O; 2Nal = N[C@@H](Cc1ccc2ccccc2c1)C(=O)O; Palmitoyl = CCCCCCCCCCCCCCCC(=O)*; hPhe = N[C@@H](CCc1ccccc1)C(=O)O; Phg(2-OMe)′ = not defined here; dChg = N[C@@H](C(=O)O)C1CCCCC1; Chg = N[C@H](C(=O)O)C1CCCCC1; Phg = N[C@H](C(=O)O)c1ccccc1; Tle = CC(C)(C)[C@H](N)C(=O)O; NMeS = CN[C@@H](CO)C(=O)O; Ac5c = NC1(C(=O)O)CCCC1; Nva = CCC[C@H](N)C(=O)O; Thp = NC1(C(=O)O)CCOCC1; Aib = CC(C)(N)C(=O)O; Sar = CNCC(=O)O

B1: R3090 (peptide)
peptide: Ac-[Nva]CFT[Trp(7-aza)]EY[NMeS]AC[Nva]-NH2
modifications: linker 2-10 via mXylyl(3)
B2: R3089 (peptide)
peptide: Ac-[Chg]C[Phg]T[Trp(7-aza)]EY[NMeS]AC[Nva]-NH2
modifications: linker 2-10 via mXylyl(3)
B3: R3073 (peptide)
peptide: Ac-[Nva]C[Phg]T[Trp(7-aza)]E[Phe(4-F)][NMeS]HC[Nva]-NH2
modifications: linker 2-10 via mXylyl(3)
B4: R3007 (peptide)
peptide: Ac-[Nva]CKE[Phg]YC[NMeS][Tle]K[Trp(7-aza)]EY-NH2
modifications: linker 2-7 via mXylyl″
B5: R3086 (peptide)
peptide: Ac-[Nva]SYEC[Tle]Y[Trp(7-aza)]EYP[Chg]C[Nva]-NH2
modifications: linker 5-13 via mXylyl(3)
B6: R3083 (peptide)
peptide: Ac-VC[Phg]T[Trp(7-aza)]EY[NMeS]AC[Nva]-NH2
modifications: linker 2-10 via mXylyl(3)
B7: R3075 (peptide)
peptide: [Nva]CY[NMeS][Phg][NMePhe(4-F)][NMeS]H[NMePhe(4-F)]GC-NH2
modifications: linker 2-11 via mXylyl(3)
B8: R3006 (peptide)
peptide: Ac-YEN[Tle]Y[Trp(7-aza)]EY[Sar][Nva][NMeS]-NH2
SMILES: CCC[C@H](NC(=O)CN(C)C(=O)[C@H](Cc1ccc(O)cc1)NC(=O)[C@H](CCC(=O)O)NC(=O)[C@H](Cc1c[nH]c2ncccc12)NC(=O)[C@H](Cc1ccc(O)cc1)NC(=O)[C@@H](NC(=O)[C@H](CC(N)=O)NC(=O)[C@H](CCC(=O)O)NC(=O)[C@H](Cc1ccc(O)cc1)NC(C)=O)C(C)(C)C)C(=O)N(C)[C@@H](CO)C(N)=O
B9: R3087 (peptide)
peptide: Ac-[Nva]C[Phg(2-OMe)′]T[Trp(7-aza)]EY[NMeS]HC[Nva]-NH2
modifications: linker 2-10 via mXylyl(3)
B10: R3057 (peptide)
peptide: MCVERFCD[Tle]Y[Trp(7-aza)]EYP[Phg][Nva]-NH2
modifications: linker 2-7 via mXylyl(4); not fully specified; printed as [mXylyl(2,7)]M-C-V-E-R-F-C-D-Tbg-Y-azaTrp-E-Y-P-Phg-Nvl-NH2
B11: R3098 (peptide)
peptide: Ac-[Nva]C[Phg]T[Trp(7-aza)]QY[NMeS]AC[Nva]-NH2
modifications: linker 2-10 via mXylyl(3)
B12: R3096 (peptide)
peptide: Ac-[Nva]C[Phg][Aib][Trp(7-aza)]EY[NMeS]HC[Nva]-NH2
modifications: linker 2-10 via mXylyl(3)
B13: R3080 (peptide)
peptide: Ac-[Nva]C[Phg]T[Trp(7-aza)]EY[NMeS]C[Nva]-NH2
modifications: linker 2-9 via mXylyl(3)
B14: R3100 (peptide)
peptide: Ac-[Nva]C[Phg]T[Trp(7-aza)]EF[NMeS]AC[Nva]-NH2
modifications: linker 2-10 via mXylyl(3)
B15: R3074 (peptide)
peptide: Ac-[Nva]C[Phg]T[Trp(7-aza)]E[Tyr(OMe)][NMeS]HC[Nva]-NH2
modifications: linker 2-10 via mXylyl(3)
B16: R3095 (peptide)
peptide: Ac-[Nva]C[Phg]T[Trp(7-aza)]E[hPhe][NMeS]AC[Nva]-NH2
modifications: linker 2-10 via mXylyl(3)
B17: R3058 (peptide)
peptide: Ac-[Nva]C[Chg]T[Trp(7-aza)]EY[NMeS]HC[Nva]-NH2
modifications: linker 2-10 via pXylyl
B18: R3093 (peptide)
peptide: Ac-[Nva]C[dChg]T[Trp(7-aza)]EY[NMeS]AC[Nva]-NH2
modifications: linker 2-10 via mXylyl(3)
B19: R3072 (peptide)
peptide: Ac-[Nva][Nva]YEN[Tle]Y[Trp(7-aza)]EYP[Chg][Nva]K-NH2
SMILES: CCC[C@H](NC(C)=O)C(=O)N[C@@H](CCC)C(=O)N[C@@H](Cc1ccc(O)cc1)C(=O)N[C@@H](CCC(=O)O)C(=O)N[C@@H](CC(N)=O)C(=O)N[C@H](C(=O)N[C@@H](Cc1ccc(O)cc1)C(=O)N[C@@H](Cc1c[nH]c2ncccc12)C(=O)N[C@@H](CCC(=O)O)C(=O)N[C@@H](Cc1ccc(O)cc1)C(=O)N1CCC[C@H]1C(=O)N[C@H](C(=O)N[C@@H](CCC)C(=O)N[C@@H](CCCCN)C(N)=O)C1CCCCC1)C(C)(C)C
B20: R3099 (peptide)
peptide: Ac-[Nva]C[Phg]T[Trp(7-aza)]NY[NMeS]AC[Nva]-NH2
modifications: linker 2-10 via mXylyl(3)
B21: R3097 (peptide)
peptide: Ac-[Nva]C[Phg]T[Trp(7-aza)]DY[NMeS]AC[Nva]-NH2
modifications: linker 2-10 via mXylyl(3)
B22: R3077 (peptide)
peptide: Ac-[Nva][Nva]YEN[Tle]Y[Trp(7-aza)]EYP[Chg][Nva]K
modifications: not fully specified (residue 14, C-terminus); printed as Ac-Nvl-Nvl-Y-E-N-Tbg-Y-azaTrp-E-Y-P-Chg-Nvl-K-(PEG2000) NH2; also: PEG2000 at C-terminal Lys (K-(PEG2000) NH2), attachment unclear
B23: R3076 (peptide)
peptide: VVYENGYWEYPGVK
modifications: Ac-Nvl-Nvl-Y-E-N-Tbg-Y-azaTrp-E-Y-P-Chg-Nvl-K-(BODIPY-TMR-X) NH2
B24: R3084 (peptide)
peptide: Ac-[Nva]C[Phg]T[Trp(7-aza)]EYSAC[Nva]-NH2
modifications: linker 2-10 via mXylyl(3)
B25: R3078 (peptide)
peptide: PEG2000-[Nva][Nva]YEN[Tle]Y[Trp(7-aza)]EYP[Phg][Nva]-NH2
B26: R3005 (peptide)
peptide: Ac-[Nva]CY[Trp(7-aza)][Sar][Tle][Nva][Trp(7-aza)]EYP[Phg]P-NH2
SMILES: CCC[C@H](NC(C)=O)C(=O)N[C@@H](CS)C(=O)N[C@@H](Cc1ccc(O)cc1)C(=O)N[C@@H](Cc1c[nH]c2ncccc12)C(=O)N(C)CC(=O)N[C@H](C(=O)N[C@@H](CCC)C(=O)N[C@@H](Cc1c[nH]c2ncccc12)C(=O)N[C@@H](CCC(=O)O)C(=O)N[C@@H](Cc1ccc(O)cc1)C(=O)N1CCC[C@H]1C(=O)N[C@H](C(=O)N1CCC[C@H]1C(N)=O)c1ccccc1)C(C)(C)C
B27: R3065 (peptide)
peptide: Ac-[Nva]C[Phg]T[Trp(7-aza)]EYPHC[Nva]-NH2
modifications: linker 2-10 via pXylyl
B28: R3186 (peptide)
peptide: Ac-CVERFC[Thp][Tle]Y[Trp(7-aza)]EYP[Chg][Nva]
modifications: linker 1-6 via mXylyl(3)
B29: R3177 (peptide)
peptide: Ac-CVERFCD[Tle]Y[Trp(7-aza)]EWP[Chg][Nva]
modifications: linker 1-6 via m‑xylyl
B30: R3184 (peptide)
peptide: VERFCD[Tle]Y[Trp(7-aza)]EYP[Chg][Nva]
modifications: thioether 1-5
B31: R3185 (peptide)
peptide: Ac-CVERFC[Ac5c][Tle]Y[Trp(7-aza)]EYP[Chg][Nva]
modifications: linker 1-6 via m‑xylyl
B32: R3189 (peptide)
peptide: Ac-CAERFCD[Tle]Y[Trp(7-aza)]EYP[Phg]K(Palmitoyl)
modifications: linker 1-6 via m‑xylyl
B33: R3179 (peptide)
peptide: Ac-CVERFCD[Tle]Y[Trp(7-aza)]E[(m-Cl-homo)Phe]P[Chg][Nva]
modifications: linker 1-6 via m‑xylyl
B34: R3180 (peptide)
peptide: Ac-CVERFCD[Tle]Y[Trp(7-aza)]E[2Nal]P[Chg][Nva]
modifications: linker 1-6 via m‑xylyl
B35: R3181 (peptide)
peptide: Ac-CVERFCD[Tle]Y[Phe(3-CH2NH2)]EYP[Chg][Nva]
modifications: linker 1-6 via m‑xylyl

Target: T1, human C5 protein (human, UniProt P01031 19-673; P01031 678-1676)
Experiment: cell-based or functional assay

Binder | Avg. IC50, human hemolysis assay
B1 | > 100000 nM
B2 | > 15000 nM
B3 | 403 nM
B4 | 314 nM
B5 | > 50000 nM
B6 | > 25000 nM
B7 | > 75000 nM
B8 | 267 nM
B9 | > 25000 nM
B10 | 12.4 nM
B11 | > 100000 nM
B12 | > 50000 nM
B13 | > 50000 nM
B14 | 626 nM
B15 | 308 nM
B16 | > 50000 nM
B17 | > 10000 nM
B18 | > 100000 nM
B19 | 26.9 nM
B20 | > 100000 nM
B21 | > 100000 nM
B22 | 81.7 nM
B23 | 297 nM
B24 | > 100000 nM
B25 | 568 nM
B26 | 66.7 nM
B27 | 394 nM

Target: T1, human C5 protein
Experiment: cell-based or functional assay
Remark: another data set of the same source

Binder | Avg. IC50, hemolysis assay with C5 depleted sera
B28 | 18 nM
B29 | 12 nM
B30 | 4 nM
B31 | 12.5 nM
B32 | 81.5 nM
B33 | 83 nM
B34 | 29 nM
B35 | 1500 nM
